# From the supplement of paper PMC10567573
# B1: BTBD1 (parent)
# chain: FVLGKGRGAAAAGGPQRIPAHRFV
# Variants of: B1
# Test: protein stability index of a GFP-peptide fusion (GPS, HEK-293T) (PSI 1-6); higher = more stable
# Conditions: c terminus: a fixed tail appended
# 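Also: lentivirally expressed fusions sorted by FACS into six bins by GFP to DsRed ratio, PSI derived from sequencing read proportions per bin multiplied by bin number.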
row,Variant,protein stability index
1,FVHGKGRGAAAAGGPQRIPAHRFV [L3H],2.63
2,FVTGKGRGAAAAGGPQRIPAHRFV [L3T],2.01
3,FVCGKGRGAAAAGGPQRIPAHRFV [L3C],1.67
4,FVEGKGRGAAAAGGPQRIPAHRFV [L3E],1.56
5,FVNGKGRGAAAAGGPQRIPAHRFV [L3N],2.12
6,FVAGKGRGAAAAGGPQRIPAHRFV [L3A],2.17
7,FVVGKGRGAAAAGGPQRIPAHRFV [L3V],1.61
8,FVLGKGVGAAAAGGPQRIPAHRFV [R7V],2.06
9,FVLGKGWGAAAAGGPQRIPAHRFV [R7W],3.44
10,FVLGKGCGAAAAGGPQRIPAHRFV [R7C],3.48
11,FVLGKGSGAAAAGGPQRIPAHRFV [R7S],2.24
12,FVLGKGQGAAAAGGPQRIPAHRFV [R7Q],1.82
13,FVLGKGPGAAAAGGPQRIPAHRFV [R7P],1.98
14,FVLGKGFGAAAAGGPQRIPAHRFV [R7F],1.27
15,FVLGKGTGAAAAGGPQRIPAHRFV [R7T],2.23
16,FVLGKGIGAAAAGGPQRIPAHRFV [R7I],2.15
17,FVLGKGKGAAAAGGPQRIPAHRFV [R7K],1.17
18,FVLGKGLGAAAAGGPQRIPAHRFV [R7L],3.04
19,FVLGKGHGAAAAGGPQRIPAHRFV [R7H],1.7
20,FVLGKGYGAAAAGGPQRIPAHRFV [R7Y],1.72
21,FVLGKGEGAAAAGGPQRIPAHRFV [R7E],1.48
22,FVLGKGMGAAAAGGPQRIPAHRFV [R7M],2.03
23,FVLGKGNGAAAAGGPQRIPAHRFV [R7N],1.32
24,FVLGKGDGAAAAGGPQRIPAHRFV [R7D],1.49

row,Variant,protein stability index
1,FVLGKKRGAAAAGGPQRIPAHRFV [G6K],1.69
2,FVLGKNRGAAAAGGPQRIPAHRFV [G6N],2.1
3,FVLGKTRGAAAAGGPQRIPAHRFV [G6T],1.61
4,FVLGKHRGAAAAGGPQRIPAHRFV [G6H],1.67
5,FVLGKRRGAAAAGGPQRIPAHRFV [G6R],1.78
6,FVLGKLRGAAAAGGPQRIPAHRFV [G6L],2.69
7,FVLGKERGAAAAGGPQRIPAHRFV [G6E],2.1
8,FVLGKDRGAAAAGGPQRIPAHRFV [G6D],1.88
9,FVLGKARGAAAAGGPQRIPAHRFV [G6A],1.97
10,FVLGKFRGAAAAGGPQRIPAHRFV [G6F],1.02
11,FVLGKQRGAAAAGGPQRIPAHRFV [G6Q],1.91
12,FVLGKYRGAAAAGGPQRIPAHRFV [G6Y],3.51
13,FVLGKSRGAAAAGGPQRIPAHRFV [G6S],1.44
14,FVLGKVRGAAAAGGPQRIPAHRFV [G6V],1.69
15,FVLGKPRGAAAAGGPQRIPAHRFV [G6P],1.82
16,FVLGKIRGAAAAGGPQRIPAHRFV [G6I],2.4
17,FVLGKMRGAAAAGGPQRIPAHRFV [G6M],1.38
18,FVLGRGRGAAAAGGPQRIPAHRFV [K5R],2.08
19,FVLGSGRGAAAAGGPQRIPAHRFV [K5S],1.98
20,FVLGNGRGAAAAGGPQRIPAHRFV [K5N],2.04
21,FVLGIGRGAAAAGGPQRIPAHRFV [K5I],1.75
22,FVLGPGRGAAAAGGPQRIPAHRFV [K5P],1.74
23,FVLGYGRGAAAAGGPQRIPAHRFV [K5Y],2.95
24,FVLGQGRGAAAAGGPQRIPAHRFV [K5Q],1.8

row,Variant,protein stability index
1,FVLGHGRGAAAAGGPQRIPAHRFV [K5H],1.95
2,FVLGLGRGAAAAGGPQRIPAHRFV [K5L],1.59
3,FVLGFGRGAAAAGGPQRIPAHRFV [K5F],1.95
4,FVLGDGRGAAAAGGPQRIPAHRFV [K5D],1.89
5,FVLGAGRGAAAAGGPQRIPAHRFV [K5A],1.2
6,FVLGTGRGAAAAGGPQRIPAHRFV [K5T],2.85
7,FVLGCGRGAAAAGGPQRIPAHRFV [K5C],1.66
8,FVLGMGRGAAAAGGPQRIPAHRFV [K5M],2.82
9,FVLGVGRGAAAAGGPQRIPAHRFV [K5V],1.38
10,TVLGKGRGAAAAGGPQRIPAHRFV [F1T],3.32
11,QVLGKGRGAAAAGGPQRIPAHRFV [F1Q],3.28
12,PVLGKGRGAAAAGGPQRIPAHRFV [F1P],3.04
13,VVLGKGRGAAAAGGPQRIPAHRFV [F1V],2.21
14,YVLGKGRGAAAAGGPQRIPAHRFV [F1Y],1.26
15,MVLGKGRGAAAAGGPQRIPAHRFV [F1M],2.29
16,LVLGKGRGAAAAGGPQRIPAHRFV [F1L],2.51
17,NVLGKGRGAAAAGGPQRIPAHRFV [F1N],3.31
18,IVLGKGRGAAAAGGPQRIPAHRFV [F1I],1.91
19,KVLGKGRGAAAAGGPQRIPAHRFV [F1K],2.99
20,RVLGKGRGAAAAGGPQRIPAHRFV [F1R],3.35
21,WVLGKGRGAAAAGGPQRIPAHRFV [F1W],1.95
22,HVLGKGRGAAAAGGPQRIPAHRFV [F1H],3.4
23,DVLGKGRGAAAAGGPQRIPAHRFV [F1D],3.02
24,GVLGKGRGAAAAGGPQRIPAHRFV [F1G],3.51

row,Variant,protein stability index
1,CVLGKGRGAAAAGGPQRIPAHRFV [F1C],2.22
2,AVLGKGRGAAAAGGPQRIPAHRFV [F1A],2.66
3,SVLGKGRGAAAAGGPQRIPAHRFV [F1S],2.92
4,FVLHKGRGAAAAGGPQRIPAHRFV [G4H],2
5,FVLYKGRGAAAAGGPQRIPAHRFV [G4Y],2.21
6,FVLMKGRGAAAAGGPQRIPAHRFV [G4M],1.38
7,FVLTKGRGAAAAGGPQRIPAHRFV [G4T],1.46
8,FVLRKGRGAAAAGGPQRIPAHRFV [G4R],2.33
9,FVLAKGRGAAAAGGPQRIPAHRFV [G4A],1.73
10,FVLFKGRGAAAAGGPQRIPAHRFV [G4F],2.27
11,FVLDKGRGAAAAGGPQRIPAHRFV [G4D],1.53
12,FVLEKGRGAAAAGGPQRIPAHRFV [G4E],1.94
13,FVLWKGRGAAAAGGPQRIPAHRFV [G4W],1.2
14,FVLIKGRGAAAAGGPQRIPAHRFV [G4I],1.98
15,FVLSKGRGAAAAGGPQRIPAHRFV [G4S],1.61
16,FVLNKGRGAAAAGGPQRIPAHRFV [G4N],2.36
17,FVLQKGRGAAAAGGPQRIPAHRFV [G4Q],1.4
18,FVLVKGRGAAAAGGPQRIPAHRFV [G4V],2.3
19,FVLLKGRGAAAAGGPQRIPAHRFV [G4L],2.39
20,FVLKKGRGAAAAGGPQRIPAHRFV [G4K],1.64
21,FVLPKGRGAAAAGGPQRIPAHRFV [G4P],2.59
22,FVLCKGRGAAAAGGPQRIPAHRFV [G4C],1.54
